Source: patent US7084106

Target: cell surface class I HLA-ABC molecules on human umbilical cord vascular endothelial cells (HUVECs) (human)
Experiment: flow cytometry on HUVECs, isotype-matched mouse IgG2a control

Question: How did the percent binding (control threshold) turn out when “isotype-matched mouse IgG2a mAb (nonspecific mouse monoclonal antibody)” was run?
Answer: < 1%
